US20230041268A1

Molecular target: CMV pp65 peptide on HLA-A*02:01 (human)
Assay: CD137 up-regulation; peptide titration on the HLA-A02:01 positive B cell line; full-length, on cells
Settings: chains Valpha:Vbeta

B1: TCR6-2 (CMV A2/pp65 495-503-specific) (protein)
chain 1: GQQLNQSPQSMFIQEGEDVSMNCTSSSIFNTWLWYKQDPGEGPVLLIALYKAGELTSNGRLTAQFGITRKDSFLNISASIPSDVGIYFCAGPMKTSYDKVIFGPGTSLSVIP
chain 2: DAGVIQSPRHEVTEMGQEVTLRCKPISGHDYLFWYRQTMMRGLELLIYFNNNVPIDDSGMPEDRFSAKMPNASFSTLKIQPSEPRDSAVYFCASSSANYGYTFGSGTRLTVV
EC50 of peptide: 10 nM
